Measurements taken from patent publication US20260167699A1 (Chugai, published 2026).

Biological target: T1, FcγRIIIa extracellular domain, C-terminal His tag (human, UniProt P08637 17-208)
T1 construct: extracellular domain; also called 3a
Assay: SPR, binding activity relative to GpH7-A5/GpH7-B3/GpL16-k0 (=100)

T1 sequence (P08637 other isoform, or with tags, fused parts or gaps): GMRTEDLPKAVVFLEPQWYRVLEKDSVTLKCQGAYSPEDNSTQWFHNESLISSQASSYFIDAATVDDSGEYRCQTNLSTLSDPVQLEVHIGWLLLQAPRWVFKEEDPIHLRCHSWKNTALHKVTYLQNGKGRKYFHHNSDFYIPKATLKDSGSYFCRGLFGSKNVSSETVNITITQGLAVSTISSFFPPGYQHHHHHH

Row | Binder | He/Con 3a
1 | GpH7-A5/GpH7-B3 variant Y296_01G/GpL16-k0 (antibody, human IgG1, kappa, He Ab; copies: 1 + 1 + 2) heavy 1: not shown heavy 2: not shown light: DIVMTQSPLSLPVTPGEPASISCQASESLVHSNRNTYLHWYLQKPGQSPQLLIYKVSNRFSGVPDRFSGSGSGTDFTLKISRVEAEDVGVYYCSQNTHVPPTFGQGTKVEIERTVAAPSVFIFPPSDEQLKSGTASVVCLLNNFYPREAKVQWKVDNALQSGNSQESVTEQDSKDSTYSLSSTLTLSKADYEKHKVYACEVTHQGLSSPVTKSFNRGEC | 51.3%
2 | GpH7-A5/GpH7-B3 variant Y296_13S/GpL16-k0 (antibody, human IgG1, kappa, He Ab; copies: 1 + 1 + 2) heavy 1: not shown heavy 2: not shown light: DIVMTQSPLSLPVTPGEPASISCQASESLVHSNRNTYLHWYLQKPGQSPQLLIYKVSNRFSGVPDRFSGSGSGTDFTLKISRVEAEDVGVYYCSQNTHVPPTFGQGTKVEIERTVAAPSVFIFPPSDEQLKSGTASVVCLLNNFYPREAKVQWKVDNALQSGNSQESVTEQDSKDSTYSLSSTLTLSKADYEKHKVYACEVTHQGLSSPVTKSFNRGEC | 58.1%
3 | GpH7-A5/GpH7-B3 variant Y296_11K/GpL16-k0 (antibody, human IgG1, kappa, He Ab; copies: 1 + 1 + 2) heavy 1: not shown heavy 2: not shown light: DIVMTQSPLSLPVTPGEPASISCQASESLVHSNRNTYLHWYLQKPGQSPQLLIYKVSNRFSGVPDRFSGSGSGTDFTLKISRVEAEDVGVYYCSQNTHVPPTFGQGTKVEIERTVAAPSVFIFPPSDEQLKSGTASVVCLLNNFYPREAKVQWKVDNALQSGNSQESVTEQDSKDSTYSLSSTLTLSKADYEKHKVYACEVTHQGLSSPVTKSFNRGEC | 53.3%
4 | GpH7-A5/GpH7-B3 variant Y296_08L/GpL16-k0 (antibody, human IgG1, kappa, He Ab; copies: 1 + 1 + 2) heavy 1: not shown heavy 2: not shown light: DIVMTQSPLSLPVTPGEPASISCQASESLVHSNRNTYLHWYLQKPGQSPQLLIYKVSNRFSGVPDRFSGSGSGTDFTLKISRVEAEDVGVYYCSQNTHVPPTFGQGTKVEIERTVAAPSVFIFPPSDEQLKSGTASVVCLLNNFYPREAKVQWKVDNALQSGNSQESVTEQDSKDSTYSLSSTLTLSKADYEKHKVYACEVTHQGLSSPVTKSFNRGEC | 72.4%
5 | GpH7-A5/GpH7-B3 variant Y296_20W/GpL16-k0 (antibody, human IgG1, kappa, He Ab; copies: 1 + 1 + 2) heavy 1: not shown heavy 2: not shown light: DIVMTQSPLSLPVTPGEPASISCQASESLVHSNRNTYLHWYLQKPGQSPQLLIYKVSNRFSGVPDRFSGSGSGTDFTLKISRVEAEDVGVYYCSQNTHVPPTFGQGTKVEIERTVAAPSVFIFPPSDEQLKSGTASVVCLLNNFYPREAKVQWKVDNALQSGNSQESVTEQDSKDSTYSLSSTLTLSKADYEKHKVYACEVTHQGLSSPVTKSFNRGEC | 127%
6 | GpH7-A5/GpH7-B3 variant Y296_03V/GpL16-k0 (antibody, human IgG1, kappa, He Ab; copies: 1 + 1 + 2) heavy 1: not shown heavy 2: not shown light: DIVMTQSPLSLPVTPGEPASISCQASESLVHSNRNTYLHWYLQKPGQSPQLLIYKVSNRFSGVPDRFSGSGSGTDFTLKISRVEAEDVGVYYCSQNTHVPPTFGQGTKVEIERTVAAPSVFIFPPSDEQLKSGTASVVCLLNNFYPREAKVQWKVDNALQSGNSQESVTEQDSKDSTYSLSSTLTLSKADYEKHKVYACEVTHQGLSSPVTKSFNRGEC | 69.1%
7 | GpH7-A5/GpH7-B3 variant Y296_09D/GpL16-k0 (antibody, human IgG1, kappa, He Ab; copies: 1 + 1 + 2) heavy 1: not shown heavy 2: not shown light: DIVMTQSPLSLPVTPGEPASISCQASESLVHSNRNTYLHWYLQKPGQSPQLLIYKVSNRFSGVPDRFSGSGSGTDFTLKISRVEAEDVGVYYCSQNTHVPPTFGQGTKVEIERTVAAPSVFIFPPSDEQLKSGTASVVCLLNNFYPREAKVQWKVDNALQSGNSQESVTEQDSKDSTYSLSSTLTLSKADYEKHKVYACEVTHQGLSSPVTKSFNRGEC | 89%
8 | GpH7-A5/GpH7-B3 variant Y296_12R/GpL16-k0 (antibody, human IgG1, kappa, He Ab; copies: 1 + 1 + 2) heavy 1: not shown heavy 2: not shown light: DIVMTQSPLSLPVTPGEPASISCQASESLVHSNRNTYLHWYLQKPGQSPQLLIYKVSNRFSGVPDRFSGSGSGTDFTLKISRVEAEDVGVYYCSQNTHVPPTFGQGTKVEIERTVAAPSVFIFPPSDEQLKSGTASVVCLLNNFYPREAKVQWKVDNALQSGNSQESVTEQDSKDSTYSLSSTLTLSKADYEKHKVYACEVTHQGLSSPVTKSFNRGEC | 66.5%
9 | GpH7-A5/GpH7-B3 variant Y296_10E/GpL16-k0 (antibody, human IgG1, kappa, He Ab; copies: 1 + 1 + 2) heavy 1: not shown heavy 2: not shown light: DIVMTQSPLSLPVTPGEPASISCQASESLVHSNRNTYLHWYLQKPGQSPQLLIYKVSNRFSGVPDRFSGSGSGTDFTLKISRVEAEDVGVYYCSQNTHVPPTFGQGTKVEIERTVAAPSVFIFPPSDEQLKSGTASVVCLLNNFYPREAKVQWKVDNALQSGNSQESVTEQDSKDSTYSLSSTLTLSKADYEKHKVYACEVTHQGLSSPVTKSFNRGEC | 76.8%
10 | GpH7-A5/GpH7-B3 variant Y296_04F/GpL16-k0 (antibody, human IgG1, kappa, He Ab; copies: 1 + 1 + 2) heavy 1: not shown heavy 2: not shown light: DIVMTQSPLSLPVTPGEPASISCQASESLVHSNRNTYLHWYLQKPGQSPQLLIYKVSNRFSGVPDRFSGSGSGTDFTLKISRVEAEDVGVYYCSQNTHVPPTFGQGTKVEIERTVAAPSVFIFPPSDEQLKSGTASVVCLLNNFYPREAKVQWKVDNALQSGNSQESVTEQDSKDSTYSLSSTLTLSKADYEKHKVYACEVTHQGLSSPVTKSFNRGEC | 79.5%
11 | GpH7-A5/GpH7-B3 variant Y300_06M/GpL16-k0 (antibody, human IgG1, kappa, He Ab; copies: 1 + 1 + 2) heavy 1: not shown heavy 2: not shown light: DIVMTQSPLSLPVTPGEPASISCQASESLVHSNRNTYLHWYLQKPGQSPQLLIYKVSNRFSGVPDRFSGSGSGTDFTLKISRVEAEDVGVYYCSQNTHVPPTFGQGTKVEIERTVAAPSVFIFPPSDEQLKSGTASVVCLLNNFYPREAKVQWKVDNALQSGNSQESVTEQDSKDSTYSLSSTLTLSKADYEKHKVYACEVTHQGLSSPVTKSFNRGEC | 106%
12 | GpH7-A5/GpH7-B3 variant Y300_02A/GpL16-k0 (antibody, human IgG1, kappa, He Ab; copies: 1 + 1 + 2) heavy 1: not shown heavy 2: not shown light: DIVMTQSPLSLPVTPGEPASISCQASESLVHSNRNTYLHWYLQKPGQSPQLLIYKVSNRFSGVPDRFSGSGSGTDFTLKISRVEAEDVGVYYCSQNTHVPPTFGQGTKVEIERTVAAPSVFIFPPSDEQLKSGTASVVCLLNNFYPREAKVQWKVDNALQSGNSQESVTEQDSKDSTYSLSSTLTLSKADYEKHKVYACEVTHQGLSSPVTKSFNRGEC | 88.1%
13 | GpH7-A5/GpH7-B3 variant Y296_02A/GpL16-k0 (antibody, human IgG1, kappa, He Ab; copies: 1 + 1 + 2) heavy 1: not shown heavy 2: not shown light: DIVMTQSPLSLPVTPGEPASISCQASESLVHSNRNTYLHWYLQKPGQSPQLLIYKVSNRFSGVPDRFSGSGSGTDFTLKISRVEAEDVGVYYCSQNTHVPPTFGQGTKVEIERTVAAPSVFIFPPSDEQLKSGTASVVCLLNNFYPREAKVQWKVDNALQSGNSQESVTEQDSKDSTYSLSSTLTLSKADYEKHKVYACEVTHQGLSSPVTKSFNRGEC | 66.3%
14 | GpH7-A5/GpH7-B3 variant Y300_01G/GpL16-k0 (antibody, human IgG1, kappa, He Ab; copies: 1 + 1 + 2) heavy 1: not shown heavy 2: not shown light: DIVMTQSPLSLPVTPGEPASISCQASESLVHSNRNTYLHWYLQKPGQSPQLLIYKVSNRFSGVPDRFSGSGSGTDFTLKISRVEAEDVGVYYCSQNTHVPPTFGQGTKVEIERTVAAPSVFIFPPSDEQLKSGTASVVCLLNNFYPREAKVQWKVDNALQSGNSQESVTEQDSKDSTYSLSSTLTLSKADYEKHKVYACEVTHQGLSSPVTKSFNRGEC | 88.6%
15 | GpH7-A5/GpH7-B3 variant Y296_06M/GpL16-k0 (antibody, human IgG1, kappa, He Ab; copies: 1 + 1 + 2) heavy 1: not shown heavy 2: not shown light: DIVMTQSPLSLPVTPGEPASISCQASESLVHSNRNTYLHWYLQKPGQSPQLLIYKVSNRFSGVPDRFSGSGSGTDFTLKISRVEAEDVGVYYCSQNTHVPPTFGQGTKVEIERTVAAPSVFIFPPSDEQLKSGTASVVCLLNNFYPREAKVQWKVDNALQSGNSQESVTEQDSKDSTYSLSSTLTLSKADYEKHKVYACEVTHQGLSSPVTKSFNRGEC | 74.6%
16 | GpH7-A5/GpH7-B3 variant Y296_16H/GpL16-k0 (antibody, human IgG1, kappa, He Ab; copies: 1 + 1 + 2) heavy 1: not shown heavy 2: not shown light: DIVMTQSPLSLPVTPGEPASISCQASESLVHSNRNTYLHWYLQKPGQSPQLLIYKVSNRFSGVPDRFSGSGSGTDFTLKISRVEAEDVGVYYCSQNTHVPPTFGQGTKVEIERTVAAPSVFIFPPSDEQLKSGTASVVCLLNNFYPREAKVQWKVDNALQSGNSQESVTEQDSKDSTYSLSSTLTLSKADYEKHKVYACEVTHQGLSSPVTKSFNRGEC | 69.1%
17 | GpH7-A5/GpH7-B3 variant Y300_03V/GpL16-k0 (antibody, human IgG1, kappa, He Ab; copies: 1 + 1 + 2) heavy 1: not shown heavy 2: not shown light: DIVMTQSPLSLPVTPGEPASISCQASESLVHSNRNTYLHWYLQKPGQSPQLLIYKVSNRFSGVPDRFSGSGSGTDFTLKISRVEAEDVGVYYCSQNTHVPPTFGQGTKVEIERTVAAPSVFIFPPSDEQLKSGTASVVCLLNNFYPREAKVQWKVDNALQSGNSQESVTEQDSKDSTYSLSSTLTLSKADYEKHKVYACEVTHQGLSSPVTKSFNRGEC | 83.8%
18 | GpH7-A5/GpH7-B3 variant Y296_19Q/GpL16-k0 (antibody, human IgG1, kappa, He Ab; copies: 1 + 1 + 2) heavy 1: not shown heavy 2: not shown light: DIVMTQSPLSLPVTPGEPASISCQASESLVHSNRNTYLHWYLQKPGQSPQLLIYKVSNRFSGVPDRFSGSGSGTDFTLKISRVEAEDVGVYYCSQNTHVPPTFGQGTKVEIERTVAAPSVFIFPPSDEQLKSGTASVVCLLNNFYPREAKVQWKVDNALQSGNSQESVTEQDSKDSTYSLSSTLTLSKADYEKHKVYACEVTHQGLSSPVTKSFNRGEC | 71.4%
19 | GpH7-A5/GpH7-B3 variant Y296_07I/GpL16-k0 (antibody, human IgG1, kappa, He Ab; copies: 1 + 1 + 2) heavy 1: not shown heavy 2: not shown light: DIVMTQSPLSLPVTPGEPASISCQASESLVHSNRNTYLHWYLQKPGQSPQLLIYKVSNRFSGVPDRFSGSGSGTDFTLKISRVEAEDVGVYYCSQNTHVPPTFGQGTKVEIERTVAAPSVFIFPPSDEQLKSGTASVVCLLNNFYPREAKVQWKVDNALQSGNSQESVTEQDSKDSTYSLSSTLTLSKADYEKHKVYACEVTHQGLSSPVTKSFNRGEC | 75.8%
20 | GpH7-A5/GpH7-B3 variant Y296_18N/GpL16-k0 (antibody, human IgG1, kappa, He Ab; copies: 1 + 1 + 2) heavy 1: not shown heavy 2: not shown light: DIVMTQSPLSLPVTPGEPASISCQASESLVHSNRNTYLHWYLQKPGQSPQLLIYKVSNRFSGVPDRFSGSGSGTDFTLKISRVEAEDVGVYYCSQNTHVPPTFGQGTKVEIERTVAAPSVFIFPPSDEQLKSGTASVVCLLNNFYPREAKVQWKVDNALQSGNSQESVTEQDSKDSTYSLSSTLTLSKADYEKHKVYACEVTHQGLSSPVTKSFNRGEC | 67.9%
21 | GpH7-A5/GpH7-B3 variant Y300_04F/GpL16-k0 (antibody, human IgG1, kappa, He Ab; copies: 1 + 1 + 2) heavy 1: not shown heavy 2: not shown light: DIVMTQSPLSLPVTPGEPASISCQASESLVHSNRNTYLHWYLQKPGQSPQLLIYKVSNRFSGVPDRFSGSGSGTDFTLKISRVEAEDVGVYYCSQNTHVPPTFGQGTKVEIERTVAAPSVFIFPPSDEQLKSGTASVVCLLNNFYPREAKVQWKVDNALQSGNSQESVTEQDSKDSTYSLSSTLTLSKADYEKHKVYACEVTHQGLSSPVTKSFNRGEC | 100%
22 | GpH7-A5/GpH7-B3 variant Y296_14T/GpL16-k0 (antibody, human IgG1, kappa, He Ab; copies: 1 + 1 + 2) heavy 1: not shown heavy 2: not shown light: DIVMTQSPLSLPVTPGEPASISCQASESLVHSNRNTYLHWYLQKPGQSPQLLIYKVSNRFSGVPDRFSGSGSGTDFTLKISRVEAEDVGVYYCSQNTHVPPTFGQGTKVEIERTVAAPSVFIFPPSDEQLKSGTASVVCLLNNFYPREAKVQWKVDNALQSGNSQESVTEQDSKDSTYSLSSTLTLSKADYEKHKVYACEVTHQGLSSPVTKSFNRGEC | 60.7%
